{"source": "patent US11732029B2", "about": "“Methods and compositions for the treatment of wounds” (The University of Chicago, priority 2017, dated 2023)", "key": {"FGF-1": {"target": "T1, FGF-1 (Homo sapiens, UniProt P05230)", "T1 construct": "All GFs and chemokines were purchased in their mature forms; purchased PeproTech; host or cells: Escherichia coli", "T1 sequence (P05230 16-155 limits assumed)": "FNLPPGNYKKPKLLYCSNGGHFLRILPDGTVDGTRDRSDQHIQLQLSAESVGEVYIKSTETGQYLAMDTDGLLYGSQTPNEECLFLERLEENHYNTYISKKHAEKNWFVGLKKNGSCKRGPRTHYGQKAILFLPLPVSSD", "assay": "vWF binding to recombinant GFs (ELISA)", "details": "VEGF-A121 signal as baseline", "method": "(§1) ELISA tests were performed as previously reported1. In brief, ELISA plates (med-binding, Greiner Bio-One) were coated with 50 nM GFs at 37° C. for 2 hrs. After blocking with 2% BSA solution containing PBS-T, 1 μg/mL of plasma-derived vWF (EMD Millipore) was added. Bound vWF was detected with 1 μg/mL of rabbit anti-human vWF antibody (Sino Biological). Then, HRP conjugated goat anti-rabbit antibody (Jackson ImmunoResearch) was added. After 60 min of incubation, 50 μL TMB substrate (Sigma-Aldrich) was added. The reaction was stopped by adding 25 μL of 2N H2SO4. Subsequently, the absorbance at 450 nm was measured and subtracted the absorbance at 570 nm."}, "PDGF-DD": {"target": "T2, PDGF-DD (Homo sapiens, UniProt Q9GZP0)", "T2 construct": "All GFs and chemokines were purchased in their mature forms; purchased PeproTech; host or cells: eukaryotic cells (not further specified)", "T2 sequence (Q9GZP0 250-370 limits assumed)": "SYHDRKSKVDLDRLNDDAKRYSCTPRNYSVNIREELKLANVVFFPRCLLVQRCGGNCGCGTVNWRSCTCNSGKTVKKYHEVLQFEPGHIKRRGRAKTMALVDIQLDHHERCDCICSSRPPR", "assay": "vWF binding to recombinant GFs (ELISA)", "details": "VEGF-A121 signal as baseline", "method": "as §1"}, "FGF-18": {"target": "T3, FGF-18 (Homo sapiens, UniProt O76093)", "T3 construct": "All GFs and chemokines were purchased in their mature forms; purchased PeproTech; host or cells: Escherichia coli", "T3 sequence (O76093 28-207)": "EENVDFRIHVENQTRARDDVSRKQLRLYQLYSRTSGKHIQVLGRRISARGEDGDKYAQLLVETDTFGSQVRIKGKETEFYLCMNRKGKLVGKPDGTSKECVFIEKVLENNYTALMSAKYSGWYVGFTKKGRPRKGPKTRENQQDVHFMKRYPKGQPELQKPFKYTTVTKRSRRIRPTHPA", "assay": "vWF binding to recombinant GFs (ELISA)", "details": "VEGF-A121 signal as baseline", "method": "as §1"}, "NT-3": {"target": "T4, NT-3 (Homo sapiens, UniProt P20783)", "T4 construct": "All GFs and chemokines were purchased in their mature forms; purchased PeproTech; host or cells: Escherichia coli", "T4 sequence (P20783 139-257)": "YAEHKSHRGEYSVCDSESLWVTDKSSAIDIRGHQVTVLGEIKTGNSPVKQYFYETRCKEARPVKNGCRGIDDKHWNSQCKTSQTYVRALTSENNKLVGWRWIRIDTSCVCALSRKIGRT", "assay": "vWF binding to recombinant GFs (ELISA)", "details": "VEGF-A121 signal as baseline", "method": "as §1"}, "VEGF-A165": {"target": "T5, VEGF-A165 (Homo sapiens, UniProt P15692)", "T5 construct": "All growth factors (GFs) and chemokines were purchased in their mature forms; purchased PeproTech; host or cells: Escherichia coli", "T5 sequence (P15692 27-191 isoform P15692-4 limits assumed)": "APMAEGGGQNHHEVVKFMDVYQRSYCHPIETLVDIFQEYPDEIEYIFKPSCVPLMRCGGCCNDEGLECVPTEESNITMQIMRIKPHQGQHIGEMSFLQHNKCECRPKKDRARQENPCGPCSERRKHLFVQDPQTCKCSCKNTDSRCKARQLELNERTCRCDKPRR", "assay": "Surface plasmon resonance, vWF against GF", "type": "binding", "details": "SPR; vWF immobilized; 1:1 Langmuir fit, single KD; read-out: dissociation constant (KD value) for VEGF-A165", "method": "SPR assays were performed as described previously2. In brief, measurements were made with a Biacore X100 SPR system or Biacore 3000 SPR system (GE Healthcare). Plasma-derived vWF was immobilized via amine coupling on a C1 chip (GE Healthcare) for 2000 resonance units (RU) according to the manufacturer's instructions. Recombinant human VEGF-A165, VEGF-A121, or PDGF-BB was flowed at increasing concentrations in the running buffer at 30 μL/min. The sensor chip was regenerated with glycine at pH 2 for every cycle. Specific binding of GFs to vWF was calculated automatically using the response to a non-functionalized channel as a reference. Binding curves were fitted using BIAevalution software (GE Healthcare). vWF-VEGF-A165 binding results were fitted with Langmuir binding kinetics (1:1 binding with drifting baseline Rmax local). vWF-PDGF-BB binding results were fitted with heterogeneous ligand-parallel reaction."}, "VEGF-A121 [1]": {"target": "T6, VEGF-A121 (Homo sapiens, UniProt P15692)", "T6 sequence (P15692 27-147 isoform P15692-9 limits assumed)": "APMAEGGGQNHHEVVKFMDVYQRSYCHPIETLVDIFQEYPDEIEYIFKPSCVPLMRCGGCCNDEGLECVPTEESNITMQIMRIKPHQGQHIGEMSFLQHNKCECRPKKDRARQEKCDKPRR", "assay": "vWF binding to recombinant VEGF-A isoforms (ELISA)", "design": "All growth factors (GFs) and chemokines were purchased in their mature forms; purchased PeproTech; host or cells: Escherichia coli", "details": "plate coated with 50 nM vWF domains, 1 μg/mL VEGF-A, vs BSA", "method": "ELISA was performed as previously reported1. In brief, ELISA plates (med binding: Greiner Bio-One) were coated with 50 nM BSA (GE Healthcare), pro-peptide containing recombinant vWF (Sino Biological), plasma-derived vWF (EMD Millipore), recombinant human vWF A1 domain (U-Protein Express), recombinant human vWF A2 domain (R & D systems), recombinant human vWF A3 domain (U-Protein Express), vWF A1 HBD peptide or scrambled/mutated HBD peptide (all peptides were synthesized by Genscript). After blocking with 2% BSA solution containing PBS-T, 1 μg/mL of recombinant human VEGF-A121 (PeproTech), recombinant human VEGF-A145 (R & D Systems), or recombinant human VEGF-A165 (PeproTech) was added. Bound VEGF-A was detected with 1 μg/mL of mouse anti-human VEGF-A antibody (clone: 26503, R & D systems). After 60 min of incubation, horseradish peroxidase (HRP) conjugated goat anti-mouse antibody (1:2000 dilution, Dako) was added and incubated for another 60 min. Color development and the absorbance measurement were done as described above."}, "FGF-2": {"target": "FGF-2 (Homo sapiens, UniProt P09038)", "sequence (P09038 143-288)": "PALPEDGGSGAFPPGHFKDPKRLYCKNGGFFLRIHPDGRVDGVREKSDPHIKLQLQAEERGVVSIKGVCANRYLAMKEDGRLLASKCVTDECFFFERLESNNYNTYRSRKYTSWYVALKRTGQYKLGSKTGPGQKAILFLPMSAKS", "assay": "vWF binding to recombinant GFs (ELISA)", "design": "All GFs and chemokines were purchased in their mature forms; purchased PeproTech; host or cells: Escherichia coli", "details": "VEGF-A121 signal as baseline", "method": "as §1"}, "BMP-2": {"target": "T7, BMP-2 (Homo sapiens, UniProt P12643)", "T7 sequence (P12643 283-396)": "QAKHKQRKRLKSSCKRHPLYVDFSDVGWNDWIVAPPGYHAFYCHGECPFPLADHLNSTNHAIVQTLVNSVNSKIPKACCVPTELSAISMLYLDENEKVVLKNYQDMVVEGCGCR", "assay": "vWF binding to recombinant GFs (ELISA)", "design": "All GFs and chemokines were purchased in their mature forms; purchased PeproTech; host or cells: Escherichia coli", "details": "VEGF-A121 signal as baseline", "method": "as §1"}, "VEGF-A121 [2]": {"target": "T6, VEGF-A121", "assay": "vWF binding to recombinant GFs (ELISA)", "design": "All GFs and chemokines were purchased in their mature forms; purchased PeproTech; host or cells: Escherichia coli", "details": "non-binding reference", "method": "as §1"}}, "data": [{"substance": "vWF: human plasma-derived von Willebrand factor (EMD Millipore)", "values": [{"measurement": "vWF binding to FGF-1", "setting": "FGF-1", "value": "not"}, {"measurement": "vWF binding to PDGF-DD", "setting": "PDGF-DD", "value": "bound"}, {"measurement": "vWF binding to FGF-18", "setting": "FGF-18", "value": "bound"}, {"measurement": "vWF binding to NT-3", "setting": "NT-3", "value": "relevant binding"}, {"measurement": "Kd", "setting": "VEGF-A165", "value": 27, "unit": "nM"}, {"measurement": "binding to VEGF-A121", "setting": "VEGF-A121 [1]", "value": "did not"}, {"measurement": "vWF binding to FGF-2", "setting": "FGF-2", "value": "bound"}, {"measurement": "vWF binding to BMP-2", "setting": "BMP-2", "value": "strong binding"}, {"measurement": "vWF binding to VEGF-A121", "setting": "VEGF-A121 [2]", "value": "not"}]}]}
